Numbered stars: 1 amine (or outer) side, 2 acyl side, 3 side chain; on linkers, the order of the positions; unused ones are H or OH. Bridge positions count the residues as written; N and C are the ends. Primed or numbered codes have the meaning given here. Ends that are not written are not given here. DVP = divinylpyrimidine, c1nc(CC[*:1])cc(CC[*:2])n1; DVT″ = divinyltriazine
Columns and labels:
HumRadA22 [1] = assay: ITC
HumRadA22 [2] = assay: FP
HumRadA22 [3] = assay: ITC; remark: listed apart in the source

GSVNSSAFSGFSTASGKKLNVSCEALQKACKLFSDI (linker 23-30 via DVT″) [SP2, tag-free, stapled with DVT]
Kd (HumRadA22 [1]): 17 nM

GFSGFSTASGKKLNVSCQALQKACKLFSG (linker 17-24 via DVP) [SP24, tag-free, stapled with DVP]
Kd (HumRadA22 [2]): 13 nM
Kd (HumRadA22 [1]): 21 nM

GCSGFSTASGKKLNVSTQACQKAVKLFSG (linker 2-20 via DVP (inferred)) [SP30, tag-free, stapled with DVP]
Kd (HumRadA22 [2]): 13 nM
Kd (HumRadA22 [1]): 26 nM

RRRRRRRRRGCSGFSTASGKKLNVSTQACQKAVKLFSG (stapled (linker not stated for SP31)) [SP31]
Kd (HumRadA22 [3]): 44 nM

VNSSAFSGFSTASGKKLNVSTEALQKAVKLFSDIENIS [BRC8-2 template]
Kd (HumRadA22 [1]): 4 nM

From publication PMC10699557 (2023)
